Target: T1, His-tagged AMF expressed in and purified from E. coli (human, UniProt P06744 1-558)
T1 construct: autocrine motility factor (AMF) / phosphoglucose isomerase (PGI); the E. coli expression construct is not described; also called his-AMF; PGI; source: E. coli (BL21), purified (Ni-NTA agarose, PD-10 desalting); not shown: His, N-terminal, kept
Assay: pull-down; GST fusions held on glutathione-agarose and washed; incubated with purified his-AMF or TRIM25 in buffer D (50 mM Tris/HCl pH 7.5, 100 mM NaCl, 1 mM DTT, 0.1% Tween20), 3 hr at 4 °C; retained protein detected by immunoblot
Settings: both partners purified

binding result: binds
B1: GST fusion bearing the entire C-terminal (cytoplasmic) domain of gp78 (domain or fragment, human, UniProt Q9UKV5 309-643, looked up)
chain: IRRHKNYLRVVGNMEARFAVATPEELAVNNDDCAICWDSMQAARKLPCGHLFHNSCLRSWLEQDTSCPTCRMSLNIADNNRVREEHQGENLDENLVPVAAAEGRPRLNQHNHFFHFDGSRIASWLPSFSVEVMHTTNILGITQASNSQLNAMAHQIQEMFPQVPYHLVLQDLQLTRSVEITTDNILEGRIQVPFPTQRSDSIRPALNSPVERPSSDQEEGETSAQTERVPLDLSPRLEETLDFGEVEVEPSEVEDFEARGSRFSKSADERQRMLVQRKDELLQQARKRFLNKSSEDDAASESFLPSEGASSDPVTLRRRMLAAAAERRLQKQQTS
notes: Expression vector provided by A Weissman; also called GST-gp78C; gp78C; source: E. coli (BL21), lysate applied to glutathione-agarose and washed; also purified on glutathione-agarose

From PMC4039143, “Polyubiquitylation of AMF requires cooperation between the gp78 and TRIM25 ubiquitin ligases” (Oncotarget, 2013)
